Data reported in paper PMC10325919 (2023).
Starred links: 1 amine or outer side, 2 acyl side, 3 side chain; linkers in the order of their positions; H or OH if unused. Non-standard residues stand in square brackets, D forms with d. No end group written: not given here. Lys(Me3) = C[N+](C)(C)CCCC[C@H](N)C(=O)O; Ethylenediamine = C(CN[*:2])N[*:1]; 5‑FAM = 5-carboxyfluorescein; GABA = NCCCC(=O)O

Molecular target: T1, E. coli expressed BAHD1(aa:588–780) (UniProt Q8TBE0 588-780)
T1 chain: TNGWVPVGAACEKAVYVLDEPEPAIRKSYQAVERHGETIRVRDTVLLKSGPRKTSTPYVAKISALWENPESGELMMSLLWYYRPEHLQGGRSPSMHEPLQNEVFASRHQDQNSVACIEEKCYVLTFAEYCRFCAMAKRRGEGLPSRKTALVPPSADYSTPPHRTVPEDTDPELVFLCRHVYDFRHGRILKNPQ
Assay: FP

Kd: 700 nM
Binder: PRKQLATKAAR[Lys(Me3)]SAPATGG-{Ethylenediamine-GABA-5‑FAM} [H3 16–35 K27me3 peptide]
